Test results published in publication PMC10104521 (Proceedings of the National Academy of Sciences of the …, 2023).
One block for each binder: values may come before it.

Tests used:
[1] = biological target: T1, farnesylated GBP1 (guanylate-binding protein 1) (human, UniProt P32455 1-592, C-terminal farnesyl moiety); assay: UV-absorbance-based light scattering
T1 sequence: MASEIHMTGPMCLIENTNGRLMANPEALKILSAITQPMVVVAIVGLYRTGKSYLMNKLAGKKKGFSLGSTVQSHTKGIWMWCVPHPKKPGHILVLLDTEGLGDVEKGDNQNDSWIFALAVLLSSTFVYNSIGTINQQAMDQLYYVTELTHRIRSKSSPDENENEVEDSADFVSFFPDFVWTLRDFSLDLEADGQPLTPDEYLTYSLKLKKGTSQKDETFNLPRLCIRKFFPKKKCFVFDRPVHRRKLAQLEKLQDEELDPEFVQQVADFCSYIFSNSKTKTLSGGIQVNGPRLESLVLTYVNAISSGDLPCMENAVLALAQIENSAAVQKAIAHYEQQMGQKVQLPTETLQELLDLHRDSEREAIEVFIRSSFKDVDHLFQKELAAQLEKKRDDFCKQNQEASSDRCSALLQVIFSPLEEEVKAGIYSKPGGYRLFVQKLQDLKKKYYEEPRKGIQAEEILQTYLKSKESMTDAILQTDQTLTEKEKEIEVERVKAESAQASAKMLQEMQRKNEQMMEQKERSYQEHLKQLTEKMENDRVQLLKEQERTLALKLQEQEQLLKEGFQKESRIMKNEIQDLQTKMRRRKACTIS

[2] = biological target: the molecule itself; assay: dynamic light scattering
[3] = biological target: T2, geranylgeranylated GBP5 (guanylate-binding protein 5) (human), Q96PP8; assay: dynamic light scattering; details: remark: other sources report otherwise
T2 chain: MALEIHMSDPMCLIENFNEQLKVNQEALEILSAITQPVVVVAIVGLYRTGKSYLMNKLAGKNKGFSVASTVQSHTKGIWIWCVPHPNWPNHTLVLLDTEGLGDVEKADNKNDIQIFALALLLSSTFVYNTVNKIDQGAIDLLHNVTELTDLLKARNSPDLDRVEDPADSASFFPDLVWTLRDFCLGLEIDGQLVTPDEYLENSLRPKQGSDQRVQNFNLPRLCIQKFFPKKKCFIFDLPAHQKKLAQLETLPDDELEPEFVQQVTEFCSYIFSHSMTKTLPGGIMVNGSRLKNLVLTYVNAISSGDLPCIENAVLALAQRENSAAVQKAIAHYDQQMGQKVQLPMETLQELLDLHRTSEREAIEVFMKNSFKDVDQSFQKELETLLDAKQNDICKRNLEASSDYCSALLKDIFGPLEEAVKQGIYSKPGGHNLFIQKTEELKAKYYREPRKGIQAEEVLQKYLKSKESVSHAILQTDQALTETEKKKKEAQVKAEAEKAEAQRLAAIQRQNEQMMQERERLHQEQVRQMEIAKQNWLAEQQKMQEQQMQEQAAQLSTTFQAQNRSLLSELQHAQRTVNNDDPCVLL

[4] = biological target: T3, nongeranylgeranylated GBP5 (human), Q96PP8; assay: dynamic light scattering; details: remark: other sources report otherwise
T3 chain: T2 chain

[5] = biological target: T4, nonfarnesylated GBP1 (human), P32455; assay: dynamic light scattering; details: remark: other sources report otherwise
T4 chain: T1 sequence

B1: geranylgeranylated GBP2 (guanylate-binding protein 2) (natural protein, human, UniProt P32456 1-591, looked up)
chain: MAPEINLPGPMSLIDNTKGQLVVNPEALKILSAITQPVVVVAIVGLYRTGKSYLMNKLAGKKNGFSLGSTVKSHTKGIWMWCVPHPKKPEHTLVLLDTEGLGDIEKGDNENDSWIFALAILLSSTFVYNSMGTINQQAMDQLHYVTELTDRIKANSSPGNNSVDDSADFVSFFPAFVWTLRDFTLELEVDGEPITADDYLELSLKLRKGTDKKSKSFNDPRLCIRKFFPKRKCFVFDWPAPKKYLAHLEQLKEEELNPDFIEQVAEFCSYILSHSNVKTLSGGIPVNGPRLESLVLTYVNAISSGDLPCMENAVLALAQIENSAAVEKAIAHYEQQMGQKVQLPTETLQELLDLHRDSEREAIEVFMKNSFKDVDQMFQRKLGAQLEARRDDFCKQNSKASSDCCMALLQDIFGPLEEDVKQGTFSKPGGYRLFTQKLQELKNKYYQVPRKGIQAKEVLKKYLESKEDVADALLQTDQSLSEKEKAIEVERIKAESAEAAKKMLEEIQKKNEEMMEQKEKSYQEHVKQLTEKMERDRAQLMAEQEKTLALKLQEQERLLKEGFENESKRLQKDIWDIQMRSKSLEPICNIL
modifications: C-terminal geranylgeranyl moiety
- binding result [1]: binds
- binding result [2]: binds

B2: nongeranylgeranylated GBP2 (natural protein, human, UniProt P32456 1-591, looked up)
chain: B1 chain
- stoichiometry N [2]: 2

B3: geranylgeranylated GBP5 (guanylate-binding protein 5), Q96PP8 1-586 (natural protein)
chain: T2 chain
modifications: here or on the partner: C-terminal geranylgeranyl moiety; C-terminal geranylgeranyl moiety
- stoichiometry N [3]: 2

B4: geranylgeranylated GBP5 (guanylate-binding protein 5) (natural protein, human, UniProt Q96PP8 1-586, looked up)
chain: T2 chain
modifications: C-terminal geranylgeranyl moiety
- binding result [1]: binds

Continued, values first:

- stoichiometry N [4]: 2
B5: nongeranylgeranylated GBP5, Q96PP8 1-586 (natural protein)
chain: T2 chain

- stoichiometry N [5]: 2
B6: nonfarnesylated GBP1, P32455 1-592 (natural protein)
chain: T1 sequence
